{"source": "patent US20260209320A1", "key": {"[1]": {"target": "T1, Peptide 41 (mouse)", "T1 sequence (peptide)": "PPQPPPQGQPPPPPP", "assay": "peptide microarray; Sp M; IgG 1 µg/ml"}, "[2]": {"target": "T2, Peptide 5 (human)", "T2 sequence (peptide)": "QQQPPPPPPPPPPPQ", "assay": "peptide microarray; Sp H; IgG 10 µg/ml"}, "[3]": {"target": "T3, Peptide 19 (cyno)", "T3 sequence (peptide)": "PQAQPMLPQPQPPPP", "assay": "peptide microarray; Sp C1; IgG 10 µg/ml"}, "[4]": {"target": "T1, Peptide 41 (mouse)", "assay": "peptide microarray; Sp M; IgG 10 µg/ml"}, "[5]": {"target": "T3, Peptide 19 (cyno)", "assay": "peptide microarray; Sp C1; IgG 1 µg/ml"}, "[6]": {"target": "T4, Peptide 27 (cyno)", "T4 sequence (peptide)": "PPPPPPPPPPPPQLP", "assay": "peptide microarray; Sp C2; IgG 1 µg/ml"}, "[7]": {"target": "T5, Peptide 23 (cyno)", "T5 sequence (peptide)": "QQQQQQQQQQPPPPP", "assay": "peptide microarray; Sp C2; IgG 1 µg/ml"}, "[8]": {"target": "T2, Peptide 5 (human)", "assay": "peptide microarray; Sp H; IgG 1 µg/ml"}, "[9]": {"target": "T4, Peptide 27 (cyno)", "assay": "peptide microarray; Sp C2; IgG 10 µg/ml"}, "[10]": {"target": "T5, Peptide 23 (cyno)", "assay": "peptide microarray; Sp C2; IgG 10 µg/ml"}, "[11]": {"target": "T6, Peptide 20 (cyno)", "T6 sequence (peptide)": "QAQPMLPQPQPPPPP", "assay": "peptide microarray; Sp C2 (first of two rows printed SEQ ID NO: 73); IgG 10 µg/ml"}, "[12]": {"target": "T7, Peptide 14 (human, cyno)", "T7 sequence (peptide)": "PQPQPPPPPPPPPPG", "assay": "peptide microarray; Sp H; IgG 10 µg/ml"}, "[13]": {"target": "T8, Peptide 15 (human, cyno)", "T8 sequence (peptide)": "QPQPPPPPPPPPPGP", "assay": "peptide microarray; Sp H; IgG 10 µg/ml"}, "[14]": {"target": "T9, Peptide 6 (human)", "T9 sequence (peptide)": "QQPPPPPPPPPPPQL", "assay": "peptide microarray; Sp H; IgG 10 µg/ml"}, "[15]": {"target": "T6, Peptide 20 (cyno)", "assay": "peptide microarray; Sp C1; IgG 10 µg/ml"}, "[16]": {"target": "T6, Peptide 20 (cyno)", "assay": "peptide microarray; Sp C2 (second of two rows printed SEQ ID NO: 73); IgG 1 µg/ml"}, "[17]": {"target": "T6, Peptide 20 (cyno)", "assay": "peptide microarray; Sp C2 (first of two rows printed SEQ ID NO: 73); IgG 1 µg/ml"}, "[18]": {"target": "T6, Peptide 20 (cyno)", "assay": "peptide microarray; Sp C2 (second of two rows printed SEQ ID NO: 73); IgG 10 µg/ml"}, "[19]": {"target": "T6, Peptide 20 (cyno)", "assay": "peptide microarray; Sp C1; IgG 1 µg/ml"}, "[20]": {"target": "T7, Peptide 14 (human, cyno)", "assay": "peptide microarray; Sp C2; IgG 1 µg/ml"}, "[21]": {"target": "T8, Peptide 15 (human, cyno)", "assay": "peptide microarray; Sp C2; IgG 1 µg/ml"}, "[22]": {"target": "T7, Peptide 14 (human, cyno)", "assay": "peptide microarray; Sp H; IgG 1 µg/ml"}, "[23]": {"target": "T8, Peptide 15 (human, cyno)", "assay": "peptide microarray; Sp H; IgG 1 µg/ml"}, "[24]": {"target": "T9, Peptide 6 (human)", "assay": "peptide microarray; Sp H; IgG 1 µg/ml"}, "[25]": {"target": "T7, Peptide 14 (human, cyno)", "assay": "peptide microarray; Sp C2; IgG 10 µg/ml"}, "[26]": {"target": "T8, Peptide 15 (human, cyno)", "assay": "peptide microarray; Sp C2; IgG 10 µg/ml"}}}
{"binder": "ATL_0005335 (antibody, V domains shown) VH: EVQLVESGGGLVKPGGSLRLSCAASGFTFNKAWMNWVRQAPGKGLEWVGRIKSGIDGGTTDYAAPVQGRFTISRDDSKNTVYLQMNSLNTEDTAVYYCIPPPYYYYYGLDVWGQGTTVTVSS VL: QSALTQPASVSGSPGQSITISCTGTSSDIGSYNLVSWYQQHPGNAPKPLIYEGSKRPSGVSARFSGSKSGNTASLTISGLQPEDEADYYCSSYAGFNTLVFGGGTKVTVL", "values": [{"measurement": "corrected fluorescence intensity", "setting": "[1]", "result": 256}, {"measurement": "corrected fluorescence intensity", "setting": "[2]", "result": 593}, {"measurement": "corrected fluorescence intensity", "setting": "[3]", "result": 453}, {"measurement": "corrected fluorescence intensity", "setting": "[4]", "result": 0}, {"measurement": "corrected fluorescence intensity", "setting": "[5]", "result": 79}, {"measurement": "corrected fluorescence intensity", "setting": "[6]", "result": 0}, {"measurement": "corrected fluorescence intensity", "setting": "[7]", "result": 0}, {"measurement": "corrected fluorescence intensity", "setting": "[8]", "result": 0}, {"measurement": "corrected fluorescence intensity", "setting": "[9]", "result": 604}, {"measurement": "corrected fluorescence intensity", "setting": "[10]", "result": 524}]}
{"binder": "ATL_0005331 (antibody, V domains shown) VH: EVQLVESGGGLVKPGGSLRLSCAASGFTFNKAWMNWVRQAPGKGLEWVGRIKSGIDGGTTDYAAPVQGRFTISRDDSKNTVYLQMNSLNTEDTAVYYCIPPPYYYYYGLDVWGQGTTVTVSS VL: QSALTQPRSVSGSPGQSITISCTGTSSDVGSYNLVSWFQQHPGKAPKLIIYEVNKRPSGVPDRFSGSKSGNTASLTVSGLQAEDEADYYCGSYAGTNNVFGTGTKLTVL", "values": [{"measurement": "corrected fluorescence intensity", "setting": "[11]", "result": 0}, {"measurement": "corrected fluorescence intensity", "setting": "[12]", "result": 412}, {"measurement": "corrected fluorescence intensity", "setting": "[13]", "result": 382}, {"measurement": "corrected fluorescence intensity", "setting": "[2]", "result": 382}, {"measurement": "corrected fluorescence intensity", "setting": "[14]", "result": 397}, {"measurement": "corrected fluorescence intensity", "setting": "[15]", "result": 504}, {"measurement": "corrected fluorescence intensity", "setting": "[16]", "result": 51.5}, {"measurement": "corrected fluorescence intensity", "setting": "[17]", "result": 0}, {"measurement": "corrected fluorescence intensity", "setting": "[18]", "result": 0}, {"measurement": "corrected fluorescence intensity", "setting": "[19]", "result": 178}, {"measurement": "corrected fluorescence intensity", "setting": "[20]", "result": 45.5}, {"measurement": "corrected fluorescence intensity", "setting": "[6]", "result": 99.2}, {"measurement": "corrected fluorescence intensity", "setting": "[21]", "result": 50}, {"measurement": "corrected fluorescence intensity", "setting": "[22]", "result": 84}, {"measurement": "corrected fluorescence intensity", "setting": "[23]", "result": 134}, {"measurement": "corrected fluorescence intensity", "setting": "[8]", "result": 0}, {"measurement": "corrected fluorescence intensity", "setting": "[24]", "result": 0}, {"measurement": "corrected fluorescence intensity", "setting": "[25]", "result": 464}, {"measurement": "corrected fluorescence intensity", "setting": "[9]", "result": 321}, {"measurement": "corrected fluorescence intensity", "setting": "[26]", "result": 478}]}
